The record followed here is the RNAGym collection of RNA variant scans (doi:10.1093/molbev/msab373).

B1: Azoarcus group I ribozyme (parent)
chain: GUGCCUUGCGCCGGGAAACCACGCAAGGGAUGGUGUCAAAUUCGGCGAAACCUAAGCGCCCGCCCGGGCGUAUGGCAACGCCGAGCCAAGCUUCGGCGCCUGCGCCGAUGAAGGUGUAGAGACUAGACGGCACCCACCUAAGGCAAACGCUAUGGUGAAGGCAUAGUCCAGGGAGUGGCGAAAGUCACACAAACCGG

In this data set the parent is B1. In words: reverse-splicing fitness (ratio to wild type); higher = more active; in vitro selection; Mg2+ level not given. The essentials: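 An in vitro group I ribozyme library with randomized positions was T7-transcribed and gel-purified. In triplicate, 10 pmol RNA in EPPS pH 7.5 was reacted with 50 pmoles of a 30-nt RNA substrate for 1 h at 37 °C across several added MgCl2 levels (1–48 mM), then stopped with EDTA. Products were reverse transcribed from a substrate-complementary primer, PCR-amplified and sequenced (HiSeq 4000). Fitness is a variant's read proportion after selection over that before, normalised to wild type.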
Regarding GUGCCUUGCGCCGGGAAACCACGCAAGGGAUGGUGUCAAAUUCGGCGAAACCUAAGCGCCCGCCCGGGCGUAUGGCAACGCCGAGCCAAGCUUCGGCGCCUGCGCCGAUGCAGGUGUAGCGACUAGACGGCACCCACCUAAGGCUAACGCUAUGGUGAAGGCAUAGUCGAGGGAGUGGCGAAAGUCACACAAACCGG [A111C A120C A145U C169G], the reverse-splicing fitness worked out at 0.00945.

GUGCCUUGCGCCGGGAAACCACGCAAGGGAUGGUGUCAAAUUCGGCGAAACCUAAGCGCCCGCCCGGGCGUAUGGCAACGCCGAGCCAAGCUUCGGCGCCUGCGCCGAUGCAGGUGUAGCGACUAGACGGCACCCACCUAAGGCUAACGCUAUGGUGAAGGCAUAGUCUAGGGAGUGGCGAAAGUCACACAAACCGG [A111C A120C A145U C169U]: the reverse-splicing fitness was determined as 0.189.

As for GUGCCUUGCGCCGGGAAACCACGCAAGGGAUGGUGUCAAAUUCGGCGAAACCUAAGCGCCCGCCCGGGCGUAUGGCAACGCCGAGCCAAGCUUCGGCGCCUGCGCCGAUGCAGGUGUAGCGACUAGACGGCACCCACCUAAGGCUAACGCUAUGGUGAAGGCAUAGUCAAGGGAGUGGCGAAAGUCACACAAACCGG [A111C A120C A145U C169A], the reverse-splicing fitness came out at 0.0119.

Turning to GUGCCUUGCGCCGGGAAACCACGCAAGGGAUGGUGUCAAAUUCGGCGAAACCUAAGCGCCCGCCCGGGCGUAUGGCAACGCCGAGCCAAGCUUCGGCGCCUGCGCCGAUGCAGGUGUAGCGACUAGACGGCACCCACCUAAGGCAAACGAUAUGGUGAAGGCAUAGUCAAGGGAGCGGCGAAAGUCACACAAACCGG [A111C A120C C150A C169A U176C], the reverse-splicing fitness was determined as 0.0141.

Turning to GUGCCUUGCGCCGGGAAACCACGCAAGGGAUGGUGUCAAAUUCGGCGAAACCUAAGCGCCCGCCCGGGCGUAUGGCAACGCCGAGCCAAGCUUCGGCGCCUGCGCCGAUGCAGGUGUAGCGACUAGACGGCACCCACCUAAGGCAAACGAUAUGGUGAAGGCAUAGUCAAGGGAGGGGCGAAAGUCACACAAACCGG [A111C A120C C150A C169A U176G], the reverse-splicing fitness was determined as 0.00693.

On to GUGCCUUGCGCCGGGAAACCACGCAAGGGAUGGUGUCAAAUUCGGCGAAACCUAAGCGCCCGCCCGGGCGUAUGGCAACGCCGAGCCAAGCUUCGGCGCCUGCGCCGAUGCAGGUGUAGCGACUAGACGGCACCCACCUAAGGCAAACGAUAUGGUGAAGGCAUAGUCAAGGGAGAGGCGAAAGUCACACAAACCGG [A111C A120C C150A C169A U176A], for which the reverse-splicing fitness was found to be 0.0162.

As to GUGCCUUGCGCCGGGAAACCACGCAAGGGAUGGUGUCAAAUUCGGCGAAACCUAAGCGCCCGCCCGGGCGUAUGGCAACGCCGAGCCAAGCUUCGGCGCCUGCGCCGAUGCAGGUGUAGCGACUAGACGGCACCCACCUAAGGCAAACGAUAUGGUGAAGGCAUAGUCCAGGGAGUGGCGAAAGUCACACAAACCGG [A111C A120C C150A], the reverse-splicing fitness was found to be 0.0821.

For the variant GUGCCUUGCGCCGGGAAACCACGCAAGGGAUGGUGUCAAAUUCGGCGAAACCUAAGCGCCCGCCCGGGCGUAUGGCAACGCCGAGCCAAGCUUCGGCGCCUGCGCCGAUGCAGGUGUAGCGACUAGACGGCACCCACCUAAGGCUAACGCUAUGGUGAAGGCAUAGUCGAGGGAGCGGCGAAAGUCACACAAACCGG [A111C A120C A145U C169G U176C], the reverse-splicing fitness was 0.0123.

Regarding GUGCCUUGCGCCGGGAAACCACGCAAGGGAUGGUGUCAAAUUCGGCGAAACCUAAGCGCCCGCCCGGGCGUAUGGCAACGCCGAGCCAAGCUUCGGCGCCUGCGCCGAUGCAGGUGUAGCGACUAGACGGCACCCACCUAAGGCUAACGCUAUGGUGAAGGCAUAGUCGAGGGAGGGGCGAAAGUCACACAAACCGG [A111C A120C A145U C169G U176G], the reverse-splicing fitness was determined as 0.00445.

As for GUGCCUUGCGCCGGGAAACCACGCAAGGGAUGGUGUCAAAUUCGGCGAAACCUAAGCGCCCGCCCGGGCGUAUGGCAACGCCGAGCCAAGCUUCGGCGCCUGCGCCGAUGCAGGUGUAGCGACUAGACGGCACCCACCUAAGGCUAACGCUAUGGUGAAGGCAUAGUCGAGGGAGAGGCGAAAGUCACACAAACCGG [A111C A120C A145U C169G U176A], the reverse-splicing fitness came out at 0.0103.

Regarding GUGCCUUGCGCCGGGAAACCACGCAAGGGAUGGUGUCAAAUUCGGCGAAACCUAAGCGCCCGCCCGGGCGUAUGGCAACGCCGAGCCAAGCUUCGGCGCCUGCGCCGAUGCAGGUGUAGCGACUAGACGGCACCCACCUAAGGCAAACGAUAUGGUGAAGGCAUAGUCUAGGGAGAGGCGAAAGUCACACAAACCGG [A111C A120C C150A C169U U176A], the reverse-splicing fitness worked out at 0.0208.

For the variant GUGCCUUGCGCCGGGAAACCACGCAAGGGAUGGUGUCAAAUUCGGCGAAACCUAAGCGCCCGCCCGGGCGUAUGGCAACGCCGAGCCAAGCUUCGGCGCCUGCGCCGAUGCAGGUGUAGCGACUAGACGGCACCCACCUAAGGCAAACGAUAUGGUGAAGGCAUAGUCUAGGGAGCGGCGAAAGUCACACAAACCGG [A111C A120C C150A C169U U176C], the reverse-splicing fitness was found to be 0.0224.

With GUGCCUUGCGCCGGGAAACCACGCAAGGGAUGGUGUCAAAUUCGGCGAAACCUAAGCGCCCGCCCGGGCGUAUGGCAACGCCGAGCCAAGCUUCGGCGCCUGCGCCGAUGCAGGUGUAGCGACUAGACGGCACCCACCUAAGGCAAACGAUAUGGUGAAGGCAUAGUCGAGGGAGAGGCGAAAGUCACACAAACCGG [A111C A120C C150A C169G U176A], the reverse-splicing fitness turned out to be 0.0198.

With GUGCCUUGCGCCGGGAAACCACGCAAGGGAUGGUGUCAAAUUCGGCGAAACCUAAGCGCCCGCCCGGGCGUAUGGCAACGCCGAGCCAAGCUUCGGCGCCUGCGCCGAUGCAGGUGUAGCGACUAGACGGCACCCACCUAAGGCAAACGAUAUGGUGAAGGCAUAGUCGAGGGAGCGGCGAAAGUCACACAAACCGG [A111C A120C C150A C169G U176C], the reverse-splicing fitness turned out to be 0.021.

Turning to GUGCCUUGCGCCGGGAAACCACGCAAGGGAUGGUGUCAAAUUCGGCGAAACCUAAGCGCCCGCCCGGGCGUAUGGCAACGCCGAGCCAAGCUUCGGCGCCUGCGCCGAUGCAGGUGUAGCGACUAGACGGCACCCACCUAAGGCAAACGAUAUGGUGAAGGCAUAGUCGAGGGAGGGGCGAAAGUCACACAAACCGG [A111C A120C C150A C169G U176G], the reverse-splicing fitness was found to be 0.00744.
